Results published in patent US20170190751A1 (published 2017).
Changes are numbered by the printed parent chain.

B1: I1 NGAL mutant (ligand)
chain: QDSTSDLIPAPPLSSVPLQQNFQDNQFQGKWYVVGLAGNAILREDKDPQKMYATIYELKEDKSYNVTSVLFRDDGCDYWIRTFVPGCQPGEFTLGNIKSYPGLTSYLVRVVSTNYNQHAMVFFKKVSQNQEYFKITLYGRTKELTSELKENFIRFSKSLGLPENHIVFPVPIDQCIDG
B2: F2 NGAL mutant (ligand)
chain: B1 chain with S15K, K46E, K59Q, D73K, D74K, G75K, Q130R
B3: G3 NGAL mutant (ligand)
chain: B1 chain with S15K, D73K, D74K, G75K, Q130R, K157Q
B4: H2 NGAL mutant (ligand)
chain: B1 chain with D73K, D74K, G75K, K98Q, H118F, K149Q, H165N
B5: A2 NGAL mutant (ligand)
chain: B1 chain with D73K, D74K, G75K, Q130R, R140Q, K142Q
B6: K1 NGAL mutant (ligand)
chain: B1 chain with K46E, K59Q, D73K, D74K, G75K, K98Q, H118F, K149Q, H165N
B7: K3 NGAL mutant protein (ligand)
chain: B1 chain with K46E, K98Q, H118F, K149Q, H165N
B8: B4 NGAL mutant (ligand)
chain: B1 chain with S15K, K46E, D73K, D74K, G75K, K98Q, Q130R
B9: I5 NGAL mutant (ligand)
chain: B1 chain with K62G
B10: K2 NGAL mutant (ligand)
chain: B1 chain with K98Q, H118F, K149Q, H165N
B11: D1 NGAL mutant (ligand)
chain: B1 chain with S15K, Q130R
B12: K5 NGAL mutant (ligand)
chain: B1 chain with K46E, D73K, D74K, G75K, K98Q, H118F, K149Q, H165N
B13: C3 NGAL mutant (ligand)
chain: B1 chain with K50T, R72Q, D73K, D74K, G75K, Q130R, K149Q, K157Q
B14: I3 NGAL mutant (ligand)
chain: B1 chain with S15K, K62G, K98Q, Q130R

target: mouse megalin (mouse, UniProt A2ARV4 26-4660); test: cell-based or functional assay
Sequence (A2ARV4 26-4660 limits assumed): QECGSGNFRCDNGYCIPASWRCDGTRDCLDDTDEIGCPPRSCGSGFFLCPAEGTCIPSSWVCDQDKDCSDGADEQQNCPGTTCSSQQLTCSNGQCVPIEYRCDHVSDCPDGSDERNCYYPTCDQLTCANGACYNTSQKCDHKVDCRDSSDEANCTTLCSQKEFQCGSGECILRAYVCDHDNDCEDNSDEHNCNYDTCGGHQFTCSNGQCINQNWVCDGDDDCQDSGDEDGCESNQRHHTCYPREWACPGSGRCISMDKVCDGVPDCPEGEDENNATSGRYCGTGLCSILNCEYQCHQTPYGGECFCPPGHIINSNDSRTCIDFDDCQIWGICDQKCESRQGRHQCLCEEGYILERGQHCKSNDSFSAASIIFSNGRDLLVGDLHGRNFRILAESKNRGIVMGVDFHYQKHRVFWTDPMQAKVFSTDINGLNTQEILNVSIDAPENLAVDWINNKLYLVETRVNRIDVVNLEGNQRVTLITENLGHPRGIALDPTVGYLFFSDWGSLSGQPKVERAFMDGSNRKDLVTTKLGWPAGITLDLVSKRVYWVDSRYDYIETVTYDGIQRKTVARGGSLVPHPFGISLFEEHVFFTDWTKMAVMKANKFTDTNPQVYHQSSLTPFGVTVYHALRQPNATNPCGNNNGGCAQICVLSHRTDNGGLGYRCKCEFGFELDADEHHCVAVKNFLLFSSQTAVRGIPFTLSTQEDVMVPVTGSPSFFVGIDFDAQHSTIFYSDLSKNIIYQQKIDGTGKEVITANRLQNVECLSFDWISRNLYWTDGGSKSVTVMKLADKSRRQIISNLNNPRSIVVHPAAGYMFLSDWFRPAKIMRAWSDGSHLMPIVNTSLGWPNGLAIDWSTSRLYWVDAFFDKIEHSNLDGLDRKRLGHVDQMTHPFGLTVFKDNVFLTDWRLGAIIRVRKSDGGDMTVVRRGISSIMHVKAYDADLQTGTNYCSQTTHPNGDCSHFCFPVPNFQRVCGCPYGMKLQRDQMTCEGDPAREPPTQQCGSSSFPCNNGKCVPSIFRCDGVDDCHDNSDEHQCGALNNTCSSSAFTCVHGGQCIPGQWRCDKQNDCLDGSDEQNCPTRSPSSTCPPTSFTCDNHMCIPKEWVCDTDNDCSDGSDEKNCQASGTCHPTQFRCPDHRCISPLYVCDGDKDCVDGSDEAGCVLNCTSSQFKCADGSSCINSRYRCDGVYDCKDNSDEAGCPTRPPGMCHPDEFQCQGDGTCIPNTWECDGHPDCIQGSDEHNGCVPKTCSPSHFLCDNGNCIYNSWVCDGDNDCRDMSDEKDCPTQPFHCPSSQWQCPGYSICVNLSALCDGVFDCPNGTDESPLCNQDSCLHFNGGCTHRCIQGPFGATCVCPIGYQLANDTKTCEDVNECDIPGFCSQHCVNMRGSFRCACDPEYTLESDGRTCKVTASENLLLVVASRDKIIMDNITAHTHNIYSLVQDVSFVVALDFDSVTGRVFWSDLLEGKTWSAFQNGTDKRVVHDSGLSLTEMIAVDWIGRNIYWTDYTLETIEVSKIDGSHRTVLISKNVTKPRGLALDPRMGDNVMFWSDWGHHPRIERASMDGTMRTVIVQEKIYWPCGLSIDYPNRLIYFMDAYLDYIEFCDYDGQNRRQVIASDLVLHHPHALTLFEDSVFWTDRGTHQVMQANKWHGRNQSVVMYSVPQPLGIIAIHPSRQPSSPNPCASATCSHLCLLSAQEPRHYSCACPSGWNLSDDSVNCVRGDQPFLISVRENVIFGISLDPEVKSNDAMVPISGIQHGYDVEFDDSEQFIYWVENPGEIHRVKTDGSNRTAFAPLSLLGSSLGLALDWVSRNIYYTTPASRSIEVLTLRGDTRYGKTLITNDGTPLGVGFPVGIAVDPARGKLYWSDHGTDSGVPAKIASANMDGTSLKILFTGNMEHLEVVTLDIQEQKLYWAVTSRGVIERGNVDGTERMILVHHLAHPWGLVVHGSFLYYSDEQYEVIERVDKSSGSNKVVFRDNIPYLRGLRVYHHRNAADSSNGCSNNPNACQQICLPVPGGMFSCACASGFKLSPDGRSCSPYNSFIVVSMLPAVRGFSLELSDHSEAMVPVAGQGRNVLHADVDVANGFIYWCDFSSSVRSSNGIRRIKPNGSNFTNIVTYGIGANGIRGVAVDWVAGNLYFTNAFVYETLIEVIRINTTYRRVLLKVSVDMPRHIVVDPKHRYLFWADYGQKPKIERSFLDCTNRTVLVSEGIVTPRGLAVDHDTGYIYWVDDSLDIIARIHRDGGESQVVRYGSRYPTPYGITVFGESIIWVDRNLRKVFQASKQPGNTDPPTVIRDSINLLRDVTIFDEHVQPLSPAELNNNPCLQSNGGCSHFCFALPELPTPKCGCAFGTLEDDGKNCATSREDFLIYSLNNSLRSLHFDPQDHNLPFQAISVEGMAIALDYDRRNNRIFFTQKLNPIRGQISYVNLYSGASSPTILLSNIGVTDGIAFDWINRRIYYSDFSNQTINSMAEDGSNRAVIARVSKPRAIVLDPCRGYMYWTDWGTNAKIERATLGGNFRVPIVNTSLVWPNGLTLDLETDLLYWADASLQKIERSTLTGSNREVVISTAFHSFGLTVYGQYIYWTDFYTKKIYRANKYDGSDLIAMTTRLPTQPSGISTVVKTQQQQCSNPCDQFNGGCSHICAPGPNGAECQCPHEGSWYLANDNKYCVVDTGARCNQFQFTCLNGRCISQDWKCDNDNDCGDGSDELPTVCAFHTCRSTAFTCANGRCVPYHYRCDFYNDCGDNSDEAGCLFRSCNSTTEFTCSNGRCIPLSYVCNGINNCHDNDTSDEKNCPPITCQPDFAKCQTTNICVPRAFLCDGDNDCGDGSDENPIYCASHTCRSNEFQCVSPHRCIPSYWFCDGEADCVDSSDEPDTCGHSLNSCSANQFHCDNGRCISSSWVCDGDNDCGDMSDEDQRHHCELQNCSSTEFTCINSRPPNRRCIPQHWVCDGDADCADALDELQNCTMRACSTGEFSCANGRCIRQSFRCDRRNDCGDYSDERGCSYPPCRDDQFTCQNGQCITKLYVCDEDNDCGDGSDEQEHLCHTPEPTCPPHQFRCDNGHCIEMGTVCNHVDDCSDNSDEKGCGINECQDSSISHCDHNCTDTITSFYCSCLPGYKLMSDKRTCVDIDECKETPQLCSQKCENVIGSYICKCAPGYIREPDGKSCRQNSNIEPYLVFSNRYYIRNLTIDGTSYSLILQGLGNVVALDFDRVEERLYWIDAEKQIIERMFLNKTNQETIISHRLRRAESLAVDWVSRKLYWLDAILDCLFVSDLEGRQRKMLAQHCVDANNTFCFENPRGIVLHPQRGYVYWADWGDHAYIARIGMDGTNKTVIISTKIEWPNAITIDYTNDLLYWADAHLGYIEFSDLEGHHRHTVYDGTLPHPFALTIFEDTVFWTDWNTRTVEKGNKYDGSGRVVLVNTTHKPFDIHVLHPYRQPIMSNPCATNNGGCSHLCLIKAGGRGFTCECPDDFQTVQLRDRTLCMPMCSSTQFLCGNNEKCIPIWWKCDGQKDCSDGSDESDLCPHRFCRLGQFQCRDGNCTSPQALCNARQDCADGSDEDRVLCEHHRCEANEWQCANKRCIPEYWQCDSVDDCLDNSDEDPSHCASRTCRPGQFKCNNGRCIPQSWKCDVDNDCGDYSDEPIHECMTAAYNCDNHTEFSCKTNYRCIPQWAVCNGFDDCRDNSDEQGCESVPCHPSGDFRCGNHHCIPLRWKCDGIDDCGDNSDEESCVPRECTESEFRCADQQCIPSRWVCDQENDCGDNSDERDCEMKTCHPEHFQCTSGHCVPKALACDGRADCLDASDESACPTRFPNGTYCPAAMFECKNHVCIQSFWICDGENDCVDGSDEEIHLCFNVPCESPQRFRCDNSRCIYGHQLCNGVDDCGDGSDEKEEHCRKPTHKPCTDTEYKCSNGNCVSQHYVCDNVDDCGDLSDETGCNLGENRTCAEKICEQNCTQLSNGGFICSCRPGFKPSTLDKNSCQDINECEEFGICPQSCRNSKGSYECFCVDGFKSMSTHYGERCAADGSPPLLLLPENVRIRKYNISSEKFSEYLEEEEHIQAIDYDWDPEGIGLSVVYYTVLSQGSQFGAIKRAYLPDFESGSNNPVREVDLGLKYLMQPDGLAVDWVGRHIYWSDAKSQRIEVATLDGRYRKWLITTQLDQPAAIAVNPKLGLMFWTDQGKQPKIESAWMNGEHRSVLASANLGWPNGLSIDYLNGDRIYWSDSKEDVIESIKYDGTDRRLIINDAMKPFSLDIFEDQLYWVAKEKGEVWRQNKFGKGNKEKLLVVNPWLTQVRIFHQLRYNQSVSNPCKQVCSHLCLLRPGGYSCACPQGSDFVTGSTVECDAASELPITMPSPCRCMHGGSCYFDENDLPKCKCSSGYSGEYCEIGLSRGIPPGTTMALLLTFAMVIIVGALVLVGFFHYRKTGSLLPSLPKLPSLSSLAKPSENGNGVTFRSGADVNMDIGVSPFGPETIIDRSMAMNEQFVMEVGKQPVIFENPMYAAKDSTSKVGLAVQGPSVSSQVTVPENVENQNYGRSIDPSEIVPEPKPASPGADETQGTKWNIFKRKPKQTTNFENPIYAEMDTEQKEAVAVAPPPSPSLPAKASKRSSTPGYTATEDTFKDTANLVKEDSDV

% of i.p. injected NGAL-enterochelin-55Fe3+ complex delivered to mouse urine after 3 hours (escape from renal reabsorption) [%]	Binder
6	B1
0.11	B2
0.17	B3
0.27	B4
0.18	B5
1.9	B6
19.6	B7
0.13	B8
0.05	B9
9.3	B10
0.1	B11
2.9	B12
0.26	B13
6.9	B14
